The values below come from the DeepSol protein solubility set.

The data set is described as follows: soluble on expression in E. coli; label from the status in PepcDB or PDB records.
Consider “MAHHHHHHMLRMKLVTYFEGFFFMATANDLPAAFRGSNCLQVQVNSKSGSKRVIRLVFIRHGQSVWNSLFNSFDATWPVRAVKAMVNEAVYFFTNPFDSVIVDSPLSEKGRSEAQELARFVRSAKGQVCFDASCSLIVCSNLRRAMETALVGMQPRIVSTGERIVVDSSLQEGSRNIDAQSLSTEPGKIVPCKMGELATPQLLGTAFDPHLNGGNRTAKRNVYDRMDEFVQHLFGGVKSNPYVPASGAESGNSALKEVIVVGHSGYFRCFFKRFLPSSSRHVAKTKKLKNCAVVSFDLVRNESTGEVYIEESTVSVLYKGF”, for which the “soluble on expression in E. coli” value is listed as “not soluble”.
For “PLVKISGSSTVFPITEAVSEDFQAAKKGAIMVTAGIAGTGGGFKKFCRDEVDIVNASRPILSSEMEQCRQNGVQYIEMPIAFDALTVVVNPGNDWIKSMTVAELKKIWEPAAQEKILNWNQVNPAWPNARIKLFGAGADS”, the “soluble on expression in E. coli” value is “not soluble”.
The result for “MGSDKIHHHHHHMGLLNLLSTNRNENLFLPAHGRGNSLPKNIKTLLRLRPGIWDLPELFEIGGPLISEGAIAESQKSSAYEVGVDRCWYGVNGATGLLQSSLLALAHPGQAVLMPRNIHKSCIQACLFGGLTPLLFDVPYLTDRGHASVMDRKWLQRVLKKAKEYEDDIAAVVLVNPTYQGYSADMESLIKEIHSHSLPVLVDEAHGAYLISQIRPDLPKSAISFGADLVVHSLHKSASGLVQSAVLWSQGDKVDPFKIERAIELLQTSSPSSLLLASCESSIKELLESKGIKKLRLCIEEAEMLKDFLIKNEVPLLKNSDPLKIILHTSKFGLSGIEVDKSFIRKRMIGELAEPGTLTFCLGLSSHKRLGKRFVRIWNEILKACGKQKPCFFKRPPFGIVSKPYKSYSDSWGSNFEKVNLKDAIGRISVEMVCPYPPGIPLLIPGEILDEARVDWLIEQKSFWPEQISDFVRVIS” reads “not soluble”; that for “MIVGEDQLWGRRALEFVDSVERLEAPALISRFESLIASCGFTAYIMAGLPSRNAGLPELTLANGWPRDWFDLYVSENFSAVDPVPRHGATTVHPFVWSDAPYDRDRDPAAHRVMTRAAEFGLVEGYCIPLHYDDGSAAISMAGKDPDLSPAARGAMQLVSIYAHSRLRALSRPKPIRRNRLTPRECEILQWAAQGKTAWEISVILCITERTVKFHLIEAARKLDAANRTAAVAKALTLGLIRL”, “not soluble”.
Regarding “MELLLLSNSTLPGKAWLEHALPLIANQLNGRRSAVFIPFAGVTQTWDEYTDKTAEVLAPLGVNVTGIHRVADPLAAIEKAEIIIVGGGNTFQLLKESRERGLLAPMADRVKRGALYIGWSAGANLACPTIRTTNDMPIVDPNGFDALDLFPLQINPHFTNALPEGHKGETREQRIRELLVVAPELTVIGLPEGNWIQVSNGQAVLGGPNTTWVFKAGEEAVALEAGHRF”, the “soluble on expression in E. coli” value is given as “soluble”.
The result for “AEKQVTAGRHTYALPELFLVMATQNPIEQEGTYPLPEAQLDRFLLHLEVDYPDAEHELAILRINRGEAKGECSIERPSLSQQDIFTARQEVLDIHMAEAIEQYIVRLVMATRRASEYDSELDKWLAMGVSPRATIALDRCARAHAWLAGRDFVSPEDVQAMAYPVLRHRLLLSYHAQAEGVTSNQVIDKLLNLVGSA” reads “not soluble”.
In the case of “MGSDKIHHHHHHMDYRQPDLSVITVNYNGFHDTCEFIDSWAATVFSVSYEMIVIDNGSTANEAALLQKTYPFIQAVRSERNLGFAGGNNLGINLAKGKYLFLLNNDVCMVKDAIPLLIKRLLSSDKIAGVSPLIRDYAEPHAIQFAGYTQLSPITLRNRAIGKGKINKDHYPAQKTPYLHGAAMLLKKTIIDKLSLMPEEYFLYYEELDWCTYINREGYELWYDPACEIWHKDSSSTGKESPLKYYYLSRNRLLYAYRNLFDWKLPVSILYQTMIVCPKNILTALGKGKKAIAKAHWEGTKAFFKLRNKDKQP” it was “not soluble”; in that of “RAETAVQRTEDRYHNLVDTAPIPILLFDRDWKALYANEAAIAFLDADSFTEIAGKKASDFLHPDERDAARKRFQRLMREGVSVPEREYRVMTAEGEVKTATIATAPGYYRGEQVAQAMV”, “not soluble”; in that of “MGSDKIHHHHHHLSFLYVYERSAKIGVQENCVVVESKKENLKRILPIEGVENVIIFGDASLSSNCVKQFMERDINLTWLSSRGKFYGRLESTRNVNIYRQRKQFACGEDDEFCLALAKRIILAKVKNQITILRRYRRNRPEKSVQKIIDAMAKLLPIMERVHNKDELMGHEGMAARYYYQGLAELVEPDFAFSGRNRQPPRDPFNSLLSFAYTLLMYDLYTAAVNRGLNPYASFLHSIRRGHPALCSDLMEEWRAILADSLALYVTSKGIIKRENFEKPNEEGGVYLDGIGSKAFIAEYEKKVRGRSNYLAYVDYSVSFRRAMEMQCQRLAKAIEEGDPSIYQPVVIR”, “not soluble”.
The result for “MCSKNSENSNVPRAKSDFITPNCSENTKLFMIFQSRKSIICEVCGKKYSSKSALAKHKRTHETDKRCKIKLIFGSSQKKTQKLYFLQKLSFLDADFFSILERNLLIFGYFAIFFSQKNTYISRFTCPMCYASFDLSDPFKIHLRKHDNLKPFGCSYCFKQFSSRSVCRRHVQLMHENQKRAGDGDNDDDDDID” reads “not soluble”; that for “MDAEEIRAIFRFSAMEKNMIYSFGIQGDLFLPFLLSLKSGGSWSYATEETKSIAVKDVITYYDEESKTGYTLEKIYFFIDPEVVAKEGVVRRLEKCGTKEERELVERPYIIALRAKRIIFAEVNPGSRKITVRELEKKCIQLKGTPAYSAAHELEHLKKGEVEGIPLWSFEYVKDQ”, “not soluble”.
“MKEIWLLAESESWDEAKEMLKDAIEIGFDGALVRRDFLERAEKLGRMKIVPIEDAVVKISSAEDQERALQREVVVLKFEDWKVIPLENIVAMKKSGKVIAAVDTIEDAKLALTTLERGADGIAVSGDRETLRKFYEVVKEEGERVELVRARVKEIRPLGVGERVCIDTVTLMTPGEGMLVGNQASFMFLVASESEESEYVASRPFRVNAGSVNAYLKVGDKTRYLAELKAGDEVEVVKFDGAVRKSYVGRVKIERRPLILIRAEVDGVEGSVILQNAETIKLVAPDGKHVSVAELKPGDEILVWLGKKARHFGVEVDEFIVERLEHHHHHH”: the “soluble on expression in E. coli” value is given as “soluble”.
As to “MAHHHHHHMVIFDDVENSNRVGGNEGGIRPIFVQLTPNAPLPSEEYLRLVALSKAPPPPDSEGSTLHSARNCRERSARVNGRRSPTKTNVRPRPPVTATQKWGDNAMSLINSKEEAVQRHEFALHVRGARYCRLLETMLDSSDLQLEPLHYDPKDPNMGRRPNGTEGNPANSLPPVILPQATQKGCVALFTYLDLITKRVPSMLSKPLRAPLEELVQPWELEFLLYSCMGDDVRNAITHIDEDGTADKRGRAPTNDTRPSYYSTILEKAPRSVDLLLEVALLSDFLLVEPLRQLTCAFIASLALNASSEEELLQLSGLQRPMTEDELEPLYYQFPFLRPDNHAKN”, the “soluble on expression in E. coli” value is given as “not soluble”.
The result for “MNVPSTSSTRGYAKYQIRSSGMPRVLANESDVFTLDDVDVDEETDELKPNRITITKEEEKSRLVECNLDSDEEEDKTPPKEDDKGQNIRLSSKNSSTVESKERCRLRDSFDLDNDDSLSDDLDLLPPIPGAPNANSSLCSKLHRFNCCNPRIPSKCTIM” reads “soluble”; that for “MFWVFLVRHGEAYPEEVDPQRPLTEKGRKDTEKIAKALKNFGVKPELIYTSPKLRAKQTAKIIANILGVEKIRETELLLPNTDPKETSKLIDGKNVVLCGHLPNLARLFSLLYLSEDNERRVNLSTSGALVLKWKDFWVLELLLEPSVL”, “not soluble”.
In the case of “MISIIIPAFNEERRIGRTLEKISSTLPNAEIVVVFDGHDNTPEVVKKFPVKLLISESRLGKGGAIKRGINESNFQRVLLLDADFPITEEELDKILSTDADLVIPKRKIVGMPLKRKFLHKGFIIITKILFPSLAKFSDFQAGVKLVNREKVLDILDELIINDFLFDVNLIYGFKRRHYKVKEVEINYIHDESDSKISKKLIKVIILMFLSLIKLRVYYSPFRKILYTKTYLKAQDYILRKLRLEHHHHHH” it was “not soluble”; in that of “MGSDKIHHHHHHMYYISLNVKRRKLNKDNNYNEFLTDPIYSRLIENVEKLKDKVFHLSKIVNLQAYMEGFTFYTSSNYRSTPIDVIPRIITSELFFKISNYLVARSYVLNKFIREVYQEGSNPIPDWIVKTTPYFRPEMMGFSPPKDIYIHVYGADIVRVNGVPFILEDNLRIPSGISYSYKAFEYVDRFLPELKEGYDNRVLQINGLDYLYDILRYVSGNKDPIIVILTDGNYNSAYFEHKFISEKLGIILAEPNDIYVKDKEVVVRTVDEGEVHVDVIYRRIEDLDYLTPGLMKAYLRGWVTLANAPGTGVADDKATFVWIPYLAEKYGIKLENVIQPYTICLYEKENLEKVITQPTRYVIKKREGYGGIGLAIVKDDNINVLKEIYKEYENFIAQEVLDFDTVISVVNDSFYETYADMRIFTYYDKVASAVLSRVGIMGSRITNNSSGGMVKPLWIIK”, “not soluble”.
In the case of “MSGAPPPPPPYNQAYNAYPQPPQGVYTVQPGVPIGQGVQPAYAVYYQQPQTVIVDDCHHHHHHREREHGGGGGEMCCLAGLMACLCFLCLSK” it was “not soluble”; in that of “GPGSMSAGGRETAPMNLLRRRNKDEINGDVNAAADRFRNRFEKATLEERKAATTTMVNEYYDLVTDFYEYGWGQNFHFAPRYAGETFFESLARHEYFLAARGGFMEGDHIVDVGCGVGGPARNIVRLTRCNVTGVNNNDYQISRARRHDALAGMSCKIDYVKTDFCNMSLADNTFDGAYAIEATCHAKDKVKCYSEVFRVIKPGTCFVLYEWCMTDKYNPNDEYHRTIKHRIELGDGLPEMETCKQVIEYMKEAGFVVEEAIDVISQFESSPIKSIPWYQPLVGDYSSLQGLRSTPIGRILTNIMCRVLEFVHLAPKGTYKATEVLEEAAESLVVGGQLGIFTPSFYIRARKPSKQA”, “not soluble”; in that of “MAHHHHHHMNTSLSNNENENNFFIKSFFESLSNFIKNIKIEIKDTFELLNYPCVYQNSKKKFSVSENEDYKNSLTTNVISKIDKKNIENFRVYQKELHNILQNIKTFNEKYKLDVPLLSIMENLIILHLINEYKINNIVKKIQEHNIPMPELNSDLPDYLIPTLELEENQNESNLNVSISEINNLSINNNAVKHILENAQLKVDFSKLVKLNGENHLNSSSINPSSELNEKSDELTLYKKDDKIHNLTHDIKEEINNERNEDQYLNRSHNNEDEKHTLMTSKKEEKVNLIQNIGLSEETLKLLNLLPKKRKNDQN”, “not soluble”.
On to “MSATAKAPYSKTFIRSCILYEVLQKKPVFEAYQKICRSLKERISYQEFDYWFYKFYNGNHDLEDEISDEQSLVNPLLDMSNNLSEKEWCRSFVQFFHGLPPRPNKKPAFSLQSMPRKVWQELCSKLEPCDRLVAKKVTRRFRQTIDEQDNLFNTLGICFEDDKTRIFFNEKTFHYTSVGNECRITLDLFTKEDAIKIKDILTRSDNFKYANFESGNFDPIEIANVFIPNYQSNHWPIINYMRHNKKFLLKITPMTFQIKKID”, for which the “soluble on expression in E. coli” value was “not soluble”.
The result for “MRKLALVPIQFYRYAISPLMASHCRFYPSCSCYAYEAIDNHGLLRGGWLSIRRLGRCHPWNPGGYDPVPAVPTSRSSSMAELEHHHHHH” reads “not soluble”; that for “MSLLWSRCTLFLFLCPIRVRGREHIPGKGPFVVMANHQGACDIFMMYGYLGIPFKWVLKEGIRKLPFVGYACRSAGFVFVDDTRPSSIAHTMDQAKRVLAEGTSIFIFPEGSRTRNGRLARFKKGGFLMADELGVPIIPVSLDGSYRVLPSGKLIPRPHRLTLTIHPPLSVADFGERPLCISEAVRETSRRIASVLPEEMAATQSKEGHHHHHH”, “not soluble”; that for “MGSDKIHHHHHHLSNYINDLRQKVGNAPLILNTATGALFNNAGEVLLQERVDTKDWGFPGGYLEYGETYKKAIMREFQEDTGLSVIPEKLIQNTDDTFYKYPNGDQIQSINQFFLVRYLEGTLLSVKTGETTRLKYFKLDQPPQFFNEQHAEMFKKIQRMRE”, “not soluble”.
